Measurements: article PMC6220480

B1: ULBP1 (UL16 binding protein 1), recombinant (ligand)
chain: GWVDTHCLCYDFIITPKSRPEPQWCEVQGLVDERPFLHYDCVNHKAKAFASLGKKVNVTKTWEEQTETLRDVVDFLKGQLLDIQVENLIPIEPLTLQARMSCEHEAHGHGRGSWQFLFNGQKFLLFDSNNRKWTALHPGAKKMTEKWEKNRDVTMFFQKISLGDCKMWLEEFLMYWEQMLDPTKPPSLAPG
B2: ULBP2 (UL16 binding protein 2), recombinant (ligand)
chain: GRADPHSLCYDITVIPKFRPGPRWCAVQGQVDEKTFLHYDCGNKTVTPVSPLGKKLNVTTAWKAQNPVLREVVDILTEQLRDIQLENYTPKEPLTLQARMSCEQKAEGHSSGSWQFSFDGQIFLLFDSEKRMWTTVHPGARKMKEKWENDKVVAMSFHYFSMGDCIGWLEDFLMGMDSTLEPSAGAPLAMSS
B3: ULBP3 (UL16 binding protein 3), recombinant (ligand)
chain: DAHSLWYNFTIIHLPRHGQQWCEVQSQVDQKNFLSYDCGSDKVLSMGHLEEQLYATDAWGKQLEMLREVGQRLRLELADTELEDFTPSGPLTLQVRMSCECEADGYIRGSWQFSFDGRKFLLFDSNNRKWTVVHAGARRMKEKWEKDSGLTTFFKMVSMRDCKSWLRDFLMHRKKRLEPTAPPTMAPG

Biological target: NKG2D-based chimeric antigen receptor of CYAD-01 cells (full length human NKG2D fused to the CD3zeta signalling domain) (UniProt P26718)

Molecule	cytokine secretion by CYAD-01 cells cultured with plate-bound ligand [µg/mL]
MICB (major histocompatibility complex class I chain-related B), recombinant (from UniProt Q29980 23-383) (ligand)	> 0.25
MICA (major histocompatibility complex class I chain-related A), recombinant (from UniProt Q29983 24-383) (ligand)	> 0.25
B1	> 5
B2	> 5
B3	> 5
